Assay results published in PMC7485968 (2020).

T1: His-tagged ERG (Homo sapiens (Human), UniProt P11308)
T1 chain: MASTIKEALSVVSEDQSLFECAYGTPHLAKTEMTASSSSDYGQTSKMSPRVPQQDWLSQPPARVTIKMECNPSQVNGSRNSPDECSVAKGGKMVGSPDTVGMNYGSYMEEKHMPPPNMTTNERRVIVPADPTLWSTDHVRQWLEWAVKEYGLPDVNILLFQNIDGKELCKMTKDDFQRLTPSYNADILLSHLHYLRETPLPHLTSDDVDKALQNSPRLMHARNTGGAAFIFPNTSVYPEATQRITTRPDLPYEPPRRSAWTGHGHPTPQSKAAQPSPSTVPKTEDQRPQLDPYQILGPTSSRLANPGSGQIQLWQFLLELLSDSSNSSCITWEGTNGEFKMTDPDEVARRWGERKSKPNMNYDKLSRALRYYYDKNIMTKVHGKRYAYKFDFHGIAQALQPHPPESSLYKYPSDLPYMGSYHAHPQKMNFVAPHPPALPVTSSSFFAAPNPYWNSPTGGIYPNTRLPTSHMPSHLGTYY

B1: FLAG-GST-EWS 1-355aa (protein)
chain: MASTDYSTYSQAAAQQGYSAYTAQPTQGYAQTTQAYGQQSYGTYGQPTDVSYTQAQTTATYGQTAYATSYGQPPTGYTTPTAPQAYSQPVQGYGTGAYDTTTATVTTTQASYAAQSAYGTQPAYPAYGQQPAATAPTRPQDGNKPTETSQPQSSTGGYNQPSLGYGQSNYSYPQVPGSYPMQPVTAPPSYPPTSYSSTQPTSYDQSSYSQQNTYGQPSSYGQQSSYGQQSSYGQQPPTSYPPQTGSYSQAPSQYSQQSSSYGQQSSFRQDHPSSMGVYGQESGGFSGPGENRSMSGPDNRGRGRGGFDRGGMSRGGRGGGRGGMGSAGERGGFNKPGGPMDEGPDLDLGPPVDPD
B2: FLAG-GST-EWS 459-656aa (protein)
chain: PPREGRGMPPPLRGGPGGPGGPGGPMGRMGGRGGDRGGFPPRGPRGSRGNPSGGGNVQHRAGDWQCPNPGCGNQNFAWRTECNQCKAPKPEGFLPPPFPPPGGDRGRGGPGGMRGGRGGLMDRGGPGGMFRGGRGGDRGGFRGGRGMDRGGFGGGRRGGPGGPPGPLMEQMGGRRGGRGGPGKMDKGEHRQERRDRPY

Legend:
[1] = target: T1, His-tagged ERG; assay: His-tag pull-down; AlphaScreen
[2] = target: T1, His-tagged ERG; assay: His-tag pull-down

Binder | binding result [1] | binding result [2]
B1 | binds | –
B2 | – | no binding
